Publication PMC7069968, “Cholesteryl α-D-glucoside 6-acyltransferase enhances the adhesion of Helicobacter pylori to gastric epithelium” (Communications Biology, 2020)

How the values were obtained:
[1] = test system: CC(C)CCC[C@@H](C)[C@H]1CC[C@H]2[C@@H]3CC=C4C[C@@H](O[C@H]5O[C@H](CO)[C@@H](O)[C@H](O)[C@H]5O)CC[C@]4(C)[C@H]3CC[C@]12C; assay: purified protein; conditions: Ca2+ acyl acceptor; sequential rapid-equilibrium random bi-bi mechanism
[2] = test system: CCCCCCCCCCCCCC(=O)OC[C@H](COP(=O)(O)OCCN)OC(=O)CCCCCCCCCCCCC; assay: purified protein; conditions: Ca2+ acyl donor; phospholipase A1-type, a1-position acyl chain transferred to CG

## cholesteryl α-D-glucopyranoside 6′-acyltransferase (CGAT) (Helicobacter pylori 26695)
[1]
  Km: 26.0 µM
[2]
  Km: 290 µM
